Publication PMC7924733 (Journal of molecular biology, 2021)

B1: His6-Atg16 L71C (natural protein, S. cerevisiae, UniProt Q03818 1-150, looked up)
chain: MGNFIITERKKAKEERSNPQTDSMDDLLIRRLTDRNDKEAHLNELFQDNSGAIGGNIVSHDDALLNTLAICQKELKSKEQEIRRLKEVIALKNKNTERLNDELISGTIENNVLQQKLSDLKKEHSQLVARWLKKTEKETEAMNSEIDGTK
B2: Atg16 L71C L85C L99C L120C (natural protein, S. cerevisiae, UniProt Q03818 1-150, looked up)
chain: MGNFIITERKKAKEERSNPQTDSMDDLLIRRLTDRNDKEAHLNELFQDNSGAIGGNIVSHDDALLNTLAICQKELKSKEQEIRRCKEVIALKNKNTERCNDELISGTIENNVLQQKLSDCKKEHSQLVARWLKKTEKETEAMNSEIDGTK
B3: Atg16 L71C L120C (natural protein, S. cerevisiae, UniProt Q03818 1-150, looked up)
chain: MGNFIITERKKAKEERSNPQTDSMDDLLIRRLTDRNDKEAHLNELFQDNSGAIGGNIVSHDDALLNTLAICQKELKSKEQEIRRLKEVIALKNKNTERLNDELISGTIENNVLQQKLSDCKKEHSQLVARWLKKTEKETEAMNSEIDGTK

Molecular target: the molecule itself
Assay: cross-linking

Stoichiometry N, 2:
B1
B2
B3
